Data set [1] concerns the target T1, DNMT1 (Homo sapiens, UniProt P26358 P26358:1-1616). As to the kind of experiment: ELONA; 200 nM aptamer. To be noted: tags: His-tagged (Active Motif), full-length; GST-tagged version (Active Motif) used for SELEX; label: 5'-biotin; hairpin. The procedure: (§1) Microtiter High Binding plate (Nunc MaxiSorp) wells were coated with 30 nM of His-tagged DNMT1 (Active Motif) or HSA overnight at 4° C. All subsequent steps were performed at room temperature. After incubation, the plate was washed once with PBS and then blocked each well with 300 μl 3% BSA (AppliChem) in PBS for 2 hours. After two washes, the plate was incubated with 100 μL of 3′-biotinylated aptamers dissolved in PBS for 2 hours. Next, the plate was washed three times and streptavidin-conjugated horseradish peroxidase (HRP) (Sigma Aldrich) was added (1:10000 dilution). After 1-hour incubation, the plate was washed four times and the 3,3′,5,5′-Tetramethylbenzidine (TMB) substrate solution was added. The reaction was stopped with sulfuric acid (H₂SO₄) 0,16 M, forming a yellow reaction product that was read with microplate Reader (Thermo Scientific) at 450 nm.
The present disclosure identified three clusters of sequences with two aptamers (Ce-9 and Ce-10) representing the most enriched ones (FIG. 2a). These two aptamers present two mismatches among them and both had three mutation points compared to R5 (FIG. 2b). These sequences, together with Ce-49 that comes from a different cluster, were tested for the binding to DNMT1 purified protein by ELONA at 200 nM concentration.

Data set [2] concerns the target T1, DNMT1. Description: inhibition; in vitro DNMT1 inhibitor screening assay. The conditions noted are these: tags: His-tagged (Active Motif), full-length; GST-tagged version (Active Motif) used for SELEX; label: 3'-biotin (ELONA, pulldown); hairpin. The procedure: FIG. 5. Functional activity of the aptamers. (a) Activity of purified DNMT1 protein was analyzed in vitro by DNMT1 inhibitor screening assay in the absence (“-”) or in the presence of indicated aptamers. Results are expressed as percentage relative to the activity of DNMT1 protein alone; b. DNMT1 inhibitor screening assay performed with K-562 nuclear extracts from untreated cells (NT), treated with a sequence unable to bind DNMT1 (control) or transfected with the respective aptamers Ce-10-2 sh and Ce-49 sh. Results are expressed as percentage relative to the activity detected in NT sample; c. expression levels 72 hours upon aptamers transfection; d, e. Cell viability of CML K562 cells (d) or NSCLC Calu-1 and A549 cells (e) transfected with indicated aptamers or Cont. for 72 hours. In (a-d) Error bars depict mean±s.d.; R5-F: R5 sequence modified with 2′F-Py.
As next step, the present disclosure tested aptamer ability to inhibit DNMT1-mediated methylation. As first attempt, the present disclosure performed an in vitro DNMT1 inhibitor screening assay. The activity of DNMT1 purified protein was measured in the absence or in the presence of R5-F or the selected short sequences. […] The functional effects of the best binders (Ce-49 sh and Ce-10-2 sh) was further characterized monitoring the in vivo DNMT1 activity by using cell nuclear extracts from chronic K562 CML cells transfected with the aptamers (FIG. 5b).

Data set [3] deals with T1, DNMT1. As to the kind of experiment: BLI; BLItz, mutR5 background subtracted. The conditions noted are these: tags: His-tagged (Active Motif), full-length; GST-tagged version (Active Motif) used for SELEX; label: 3'-biotin (ELONA, pulldown); hairpin. The text has this: FIG. 4. Affinity and in vivo binding of DNMT1-specific aptamers. a. Analysis of Ce-49 sh and Ce-10 sh binding affinity to DNMT1 assessed by the Blitz system (ForteBIO). The background values obtained with mutR5 used as a negative control were subtracted from the values obtained with the aptamers; REMSA showing stronger Ce-49 sh and Ce-10 sh binding ability to DNMT1 than two alternative secondary structures of the original R5F (R5modified with 2′F-Py). Unrelated RNA and DNA are two […] controls. R01(unable to form stem-loop-like structures) is used as negative control; c. Increasing amount of Ce-49 sh and Ce-10 sh biotinylated aptamers were incubated in the presence or absence of HSA purified protein. No significant difference was detected between the blank control and the aptamers by ELONA. Error bars depict mean±s.d.; d. Aptamer-mediated pull-down. Protein extract from K562 cells were incubated with the biotinylated R5-F, Ce-49 sh and Ce-10-2 sh. Bound proteins were purified on streptavidin beads and immunoblotted with anti-DNMT1 antibodies.
Next, aptamer affinity to DNMT1 was assessed by the Blitz system (ForteBIO).

For data set [4], the target named is Human serum albumin (HSA) (Homo sapiens, UniProt P02768 P02768:25-609). As to the kind of experiment: ELONA; no significant binding up to 750 nM. The conditions noted are these: label: 3'-biotin (ELONA, pulldown); hairpin. The procedure:
as §1
To check the aptamer specificity, the present disclosure monitored the binding of Ce-49 sh and Ce-10-2 sh to the human serum albumin (HSA), the most enriched plasma protein that can bind, in a nonspecific manner, nucleic acids through its positive charge, thus limiting their use. […] As shown, no significant aptamer binding was measured up to 750 nM concentration. Binding was instead detected when aptamers were incubated with DNMT1 protein (FIG. 7).

The next data set deals with DNMT3B (UniProt Q9UBC3 Q9UBC3:1-853). As to the kind of experiment: BLI; specificity control.
The next data set addresses KAT5 (UniProt Q92993 Q92993:1-513). Description: BLI; specificity control. To be noted: label: 3'-biotin (ELONA, pulldown); hairpin. In general terms: Biolayer interferometry detects binding as a change in optical thickness at a sensor tip.
The next data set has as its target DNMT3A (UniProt Q9Y6K1 Q9Y6K1:1-912). As to the kind of experiment: BLI; specificity control.
Data set [5] has as its target T1, DNMT1. Description: inhibition; all short sequences stated. The conditions noted are these: tags: His-tagged (Active Motif), full-length; GST-tagged version (Active Motif) used for SELEX; label: 3'-biotin; hairpin.
In data set [6] the target is T1, DNMT1. Description: BLI; 100 nM to 2 uM; R2=0.9017; p159 states Kd not measurable. The conditions noted are these: tags: His-tagged (Active Motif), full-length; GST-tagged version (Active Motif) used for SELEX; label: 3'-biotin (ELONA, pulldown); hairpin. The procedure: Dose-response binding analyses were also performed with the 2′F-pyrimidine modified R5 (indicated as DNMT1-bait) at concentrations ranging between 100 nM and 2 μM, since no binding was detected at lower concentrations (FIG. 8a). In accordance with previous findings, no binding was detected for the mutR5 sequence which is unable to fold in stem-loop-like structures and used as a negative control (FIG. 8b).

Chain of KAT5 (Q92993 whole entry, one chain of several): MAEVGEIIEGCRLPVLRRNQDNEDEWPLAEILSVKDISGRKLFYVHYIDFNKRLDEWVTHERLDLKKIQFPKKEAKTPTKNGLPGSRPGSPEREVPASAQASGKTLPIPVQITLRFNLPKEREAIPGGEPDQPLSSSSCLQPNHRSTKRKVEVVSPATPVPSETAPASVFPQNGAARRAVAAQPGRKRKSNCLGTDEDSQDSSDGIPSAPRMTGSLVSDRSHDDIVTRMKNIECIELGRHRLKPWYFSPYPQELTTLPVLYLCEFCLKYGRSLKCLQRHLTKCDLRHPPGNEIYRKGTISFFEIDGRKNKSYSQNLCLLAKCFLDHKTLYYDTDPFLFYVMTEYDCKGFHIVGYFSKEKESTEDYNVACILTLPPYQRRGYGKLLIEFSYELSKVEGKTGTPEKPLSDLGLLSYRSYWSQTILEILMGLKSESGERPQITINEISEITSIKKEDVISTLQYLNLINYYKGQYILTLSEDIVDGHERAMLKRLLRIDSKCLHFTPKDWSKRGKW
Chain of DNMT3A (Q9Y6K1 whole entry, one chain of several): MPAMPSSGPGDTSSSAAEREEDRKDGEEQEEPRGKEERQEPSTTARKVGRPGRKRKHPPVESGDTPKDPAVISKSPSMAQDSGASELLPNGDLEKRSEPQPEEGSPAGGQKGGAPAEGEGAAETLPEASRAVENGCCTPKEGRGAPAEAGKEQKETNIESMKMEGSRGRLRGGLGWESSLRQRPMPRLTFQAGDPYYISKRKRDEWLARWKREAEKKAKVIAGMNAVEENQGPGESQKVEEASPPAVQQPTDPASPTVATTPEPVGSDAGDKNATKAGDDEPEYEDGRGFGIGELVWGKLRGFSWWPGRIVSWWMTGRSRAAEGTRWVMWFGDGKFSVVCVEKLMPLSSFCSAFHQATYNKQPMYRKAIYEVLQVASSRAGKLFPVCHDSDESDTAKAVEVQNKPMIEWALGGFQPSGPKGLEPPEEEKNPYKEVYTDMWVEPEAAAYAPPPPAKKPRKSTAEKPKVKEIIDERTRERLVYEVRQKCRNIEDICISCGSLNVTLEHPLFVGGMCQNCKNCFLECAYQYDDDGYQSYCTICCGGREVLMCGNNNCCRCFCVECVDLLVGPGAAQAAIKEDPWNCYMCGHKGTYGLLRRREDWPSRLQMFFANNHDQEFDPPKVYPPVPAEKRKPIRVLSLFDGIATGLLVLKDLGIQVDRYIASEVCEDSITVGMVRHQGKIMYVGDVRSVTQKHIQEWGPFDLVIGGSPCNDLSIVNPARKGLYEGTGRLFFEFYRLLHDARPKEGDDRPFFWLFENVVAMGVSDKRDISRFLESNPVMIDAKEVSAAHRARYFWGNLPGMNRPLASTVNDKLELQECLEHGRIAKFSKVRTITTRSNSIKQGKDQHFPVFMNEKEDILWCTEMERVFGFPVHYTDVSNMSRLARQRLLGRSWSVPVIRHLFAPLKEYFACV
T1 sequence (P26358 whole entry, one chain of several): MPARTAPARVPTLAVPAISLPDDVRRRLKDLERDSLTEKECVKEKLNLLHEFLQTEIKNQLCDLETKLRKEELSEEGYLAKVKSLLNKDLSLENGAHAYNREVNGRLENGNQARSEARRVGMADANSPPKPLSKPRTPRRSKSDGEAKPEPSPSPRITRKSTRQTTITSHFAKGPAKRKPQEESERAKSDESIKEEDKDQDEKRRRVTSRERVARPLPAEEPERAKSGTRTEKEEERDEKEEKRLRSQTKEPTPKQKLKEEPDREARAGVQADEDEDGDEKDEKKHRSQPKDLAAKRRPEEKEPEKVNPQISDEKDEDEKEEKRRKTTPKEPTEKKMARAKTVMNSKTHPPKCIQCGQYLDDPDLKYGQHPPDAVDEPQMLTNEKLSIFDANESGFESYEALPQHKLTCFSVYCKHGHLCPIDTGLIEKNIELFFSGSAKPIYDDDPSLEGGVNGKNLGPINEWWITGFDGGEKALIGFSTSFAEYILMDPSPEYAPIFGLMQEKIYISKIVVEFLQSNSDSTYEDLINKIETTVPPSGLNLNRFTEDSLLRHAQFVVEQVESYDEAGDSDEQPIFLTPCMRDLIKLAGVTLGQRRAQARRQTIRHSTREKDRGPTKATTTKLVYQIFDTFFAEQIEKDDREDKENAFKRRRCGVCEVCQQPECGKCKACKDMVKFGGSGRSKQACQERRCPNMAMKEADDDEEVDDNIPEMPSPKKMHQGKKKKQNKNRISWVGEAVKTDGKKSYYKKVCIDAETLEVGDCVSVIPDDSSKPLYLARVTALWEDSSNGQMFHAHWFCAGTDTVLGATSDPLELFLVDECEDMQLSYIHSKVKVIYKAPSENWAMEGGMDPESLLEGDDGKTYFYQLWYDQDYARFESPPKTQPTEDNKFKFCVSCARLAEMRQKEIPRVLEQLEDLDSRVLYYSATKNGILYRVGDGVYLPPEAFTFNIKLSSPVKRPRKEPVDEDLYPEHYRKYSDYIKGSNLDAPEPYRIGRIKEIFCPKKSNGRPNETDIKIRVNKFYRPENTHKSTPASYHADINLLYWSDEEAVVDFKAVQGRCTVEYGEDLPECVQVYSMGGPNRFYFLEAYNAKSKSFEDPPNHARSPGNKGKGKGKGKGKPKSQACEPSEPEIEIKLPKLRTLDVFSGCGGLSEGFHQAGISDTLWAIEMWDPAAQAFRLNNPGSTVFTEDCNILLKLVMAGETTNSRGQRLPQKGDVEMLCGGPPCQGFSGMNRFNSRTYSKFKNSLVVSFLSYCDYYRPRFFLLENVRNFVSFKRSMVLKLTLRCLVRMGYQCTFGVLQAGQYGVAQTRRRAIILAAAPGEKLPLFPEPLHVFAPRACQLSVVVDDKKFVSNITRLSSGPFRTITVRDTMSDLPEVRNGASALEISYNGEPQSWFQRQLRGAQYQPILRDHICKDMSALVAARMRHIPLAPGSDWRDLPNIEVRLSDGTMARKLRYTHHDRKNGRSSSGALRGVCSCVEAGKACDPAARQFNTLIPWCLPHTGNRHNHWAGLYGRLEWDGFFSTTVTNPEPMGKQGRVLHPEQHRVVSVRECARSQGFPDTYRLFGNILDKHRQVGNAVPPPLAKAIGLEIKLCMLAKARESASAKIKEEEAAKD
Chain of Human serum albumin (HSA) (P02768 25-609, one chain of several): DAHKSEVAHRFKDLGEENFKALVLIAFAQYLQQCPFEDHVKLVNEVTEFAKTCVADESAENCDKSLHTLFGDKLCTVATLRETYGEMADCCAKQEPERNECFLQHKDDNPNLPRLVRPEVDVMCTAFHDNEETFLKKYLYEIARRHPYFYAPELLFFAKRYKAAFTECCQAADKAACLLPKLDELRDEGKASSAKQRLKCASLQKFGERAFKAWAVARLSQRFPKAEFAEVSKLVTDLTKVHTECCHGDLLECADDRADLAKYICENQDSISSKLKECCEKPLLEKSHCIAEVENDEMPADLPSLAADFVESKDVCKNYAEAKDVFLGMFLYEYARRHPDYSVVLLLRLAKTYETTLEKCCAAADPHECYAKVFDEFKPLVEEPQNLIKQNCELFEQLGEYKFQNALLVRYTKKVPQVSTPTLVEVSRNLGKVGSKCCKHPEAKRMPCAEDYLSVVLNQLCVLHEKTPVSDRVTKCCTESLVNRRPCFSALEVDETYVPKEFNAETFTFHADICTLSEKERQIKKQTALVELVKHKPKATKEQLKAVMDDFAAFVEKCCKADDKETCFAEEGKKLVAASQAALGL

B1: Ce-49 (long, 61-mer) (ssRNA)
RNA: GGGCUGAAGGGGUUACUGGGCUGAGGCCUAACGAAGGCUUCUUAUCUGCCCCGGGGAGGAG
modifications: 2'-F pyrimidines
B1: the binding result with DNMT1 [1] was “binds”.

B2: Ce-9 (long, 61-mer) (ssRNA)
RNA: GGGCUGAAGGGGUUACUGGGCUGAGCUCAUGGCGAGGCUUCUUAUCUGCCCCGGGGAGGAG
modifications: 2'-F pyrimidines
Take B2: in the data set with DNMT1 [1], the binding result was “binds”.

B3: Ce-10 (long, 61-mer) (ssRNA)
RNA: GGGCUGAAGGGGUUACUGGGCUGAGGUAAUGGCGAGGCUUCUUAUCUGCCCCGGGGAGGAG
modifications: 2'-F pyrimidines
Take B3: the binding result in the data set with DNMT1 [1] is reported as “binds”.

Take CUGAGGCCUAACGAAGGCUUCU (ssRNA, 2'-F pyrimidines) [Ce-49 sh]: in the data set with DNMT1 [2], the activity was approximately 40 % inhibition. This molecule registered a Kd with DNMT1 [3] of approximately 79 nM. Besides, the binding result (in [4]; with DNMT3B; with KAT5; with DNMT3A) was “no binding” throughout.

In turn, UGGGCUGAGCUCAUGGCGAGGCUUC (ssRNA, 2'-F pyrimidines) [Ce-9 sh] registered an activity with DNMT1 [5] of approximately 40 % inhibition.

Consider AGGUAAUGGCGAGGCUUCUUAUCUG (ssRNA, 2'-F pyrimidines) [Ce-10-1 sh], for which the activity with DNMT1 [5] was approximately 40 % inhibition.

On to CUGAGGCCUUGGCGAGGCUUCU (ssRNA, 2'-F pyrimidines) [R5-F (DNMT1 bait)], for which binding with DNMT1 [6] was put at a Kd of 600 nM. In the data set with DNMT1 [2], the activity is approximately 40 % inhibition. Further, the binding result with DNMT3B, with KAT5 and with DNMT3A was “no binding” throughout.

In the data set with DNMT1 [2], UUACUGGGCUGAGGUAAUGGCGAGG (ssRNA, 2'-F pyrimidines) [Ce-10-2 sh] showed an activity of approximately 40 % inhibition. In addition, the Kd with DNMT1 [3] was approximately 66 nM. Also, the binding result (in data set [4]; in the data set with DNMT3B; with KAT5; with DNMT3A) was “no binding” each time.

For CUGAGGUAAUGGCGAGGCUUCU (ssRNA, 2'-F pyrimidines (listed with T in the sequence, described as RNA)) [Ce-10-R5], in the data set with DNMT1 [5], the activity was approximately 40 % inhibition.

What is called Kd is the equilibrium constant for the complex coming apart. The low end stands for tighter binding, the high end for weaker binding.

These data come from patent US20220411799, “DNMT1-Specific Aptamers and Production and Uses Thereof” (National University of Singapore, published 2022).
